Source: patent US20240252614A1 (Pfizer, published 2024)

Tests used:
hMPV137 [1] = molecular target: T1, hMPV137 (hMPV B, UniProt Q6WB98 19-102); assay: BLI, 63C stress
T1 construct: T49I, A140C-S149C
Experimental: (§1) Conformation integrity of hMPV B F protein mutants were evaluated by a thermal stress experiment. Crude cell culture supernatants were normalized based on the results of the titer quantitation and then incubated for 1 hour at room temperature and two higher temperatures. For the testing of hMPV B single mutants, the two temperatures were 53° C. and 56° C. After the incubation, the protein mutants were probed with prefusion specific monoclonal antibody hMPV-2 by OCTET HTX. Anti-Human IgG Fc Capture (AHC) biosensors were first equilibrated in PB before being dipped into more PB for to establish the initial baseline. Biosensors were incubated with hMPV-2 before being equilibrated in PB to establish the experimental baseline. The mAb-bound biosensors were then dipped into the thermal stresses cell culture supernatants for 5 minutes.

hMPV124 = molecular target: T2, hMPV124 (hMPV B, UniProt Q6WB98 19-102); assay: BLI, 63C stress
T2 construct: L141C-A161C, T411C-Q434C, A459P
Experimental: as §1

hMPV122 [2] = molecular target: T3, hMPV122 (hMPV B, UniProt Q6WB98 19-102); assay: BLI, 63C stress
T3 construct: A140C-S149C, T411C-Q434C, A459P
Experimental: as §1

hMPV127 [3] = molecular target: T4, hMPV127 (hMPV B, UniProt Q6WB98 19-102); assay: BLI, 63C stress
T4 construct: A140C-S149C, G239A, T411C-Q434C, A459P
Experimental: as §1

hMPV144 [4] = molecular target: T5, hMPV144 (hMPV B, UniProt Q6WB98 19-102); assay: BLI, 63C stress
T5 construct: T49I, L141C-A161C, S149T, A459P
Experimental: as §1

hMPV125 [5] = molecular target: T6, hMPV125 (hMPV B, UniProt Q6WB98 19-102); assay: BLI, 63C stress
T6 construct: L141C-A161C, G239A, T411C-Q434C
Experimental: as §1

hMPV131 = molecular target: T7, hMPV131 (hMPV B, UniProt Q6WB98 19-102); assay: BLI, 63C stress
T7 construct: T49I, L141C-A161C, G239A, T411C-Q434C, A459P
Experimental: as §1

hMPV140 [6] = molecular target: T8, hMPV140 (hMPV B, UniProt Q6WB98 19-102); assay: BLI, 63C stress
T8 construct: T49I, L141C-A161C, T411C-Q434C, A459P
Experimental: as §1

hMPV129 [7] = molecular target: T9, hMPV129 (hMPV B, UniProt Q6WB98 19-102); assay: BLI, 63C stress
T9 construct: T49I, A140C-S149C, G239A, T365I, T411C-Q434C, A459P
Experimental: as §1

hMPV121 [8] = molecular target: T10, hMPV121 (hMPV B, UniProt Q6WB98 19-102); assay: BLI, 63C stress
T10 construct: L141C-A161C, T411C-Q434C
Experimental: as §1

hMPV118 [9] = molecular target: T11, hMPV118 (hMPV B, UniProt Q6WB98 19-102); assay: BLI, 63C stress
T11 construct: T49I, T150C-R156C
Experimental: as §1

hMPV142 = molecular target: T12, hMPV142 (hMPV B, UniProt Q6WB98 19-102); assay: BLI, 63C stress
T12 construct: L141C-A161C, S149T, A459P
Experimental: as §1

hMPV135 = molecular target: T13, hMPV135 (hMPV B, UniProt Q6WB98 19-102); assay: BLI, 56C stress
T13 construct: T49I, S149T, A459P
Experimental: (§2) All measurements were conducted at 30° C. temperature in 96-well black plates (Corning, Corning, NY) with a final volume of 240 μL per well at a constant agitation rate of 1000 RPM.
as §1

hMPV137 [10] = molecular target: T1, hMPV137; assay: BLI, 56C stress
Experimental: as §2, §1

hMPV120 = molecular target: T14, hMPV120 (hMPV B, UniProt Q6WB98 19-102); assay: BLI, 56C stress
T14 construct: A140C-S149C, T411C-Q434C
Experimental: as §2, §1

hMPV B F WT Control = hMPV B F WT Control (hMPV B, UniProt Q6WB98 19-102); assay: BLI, 56C stress
Experimental: as §2, §1

hMPV133 = molecular target: T15, hMPV133 (hMPV B, UniProt Q6WB98 19-102); assay: BLI, 56C stress
T15 construct: T49I, L141C-A161C, S149T, G239A, T411C-Q434C, A459P
Experimental: as §2, §1

hMPV122 [11] = molecular target: T3, hMPV122; assay: BLI, 56C stress
Experimental: as §2, §1

hMPV123 = molecular target: T16, hMPV123 (hMPV B, UniProt Q6WB98 19-102); assay: BLI, 56C stress
T16 construct: A140C-S149C, G239A, T411C-Q434C
Experimental: as §2, §1

hMPV117 = molecular target: T17, hMPV117 (hMPV B, UniProt Q6WB98 19-102); assay: BLI, 56C stress
T17 construct: T150C-R156C, A459P
Experimental: as §2, §1

hMPV127 [12] = molecular target: T4, hMPV127; assay: BLI, 56C stress
Experimental: as §2, §1

hMPV144 [13] = molecular target: T5, hMPV144; assay: BLI, 56C stress
Experimental: as §2, §1

hMPV125 [14] = molecular target: T6, hMPV125; assay: BLI, 56C stress
Experimental: as §2, §1

hMPV126 = molecular target: T18, hMPV126 (hMPV B, UniProt Q6WB98 19-102); assay: BLI, 56C stress
T18 construct: T49I, T150C-R156C, G239A, A459P
Experimental: as §2, §1

hMPV136 = molecular target: T19, hMPV136 (hMPV B, UniProt Q6WB98 19-102); assay: BLI, 56C stress
T19 construct: A140C-S149C, A459P
Experimental: as §2, §1

hMPV134 = molecular target: T20, hMPV134 (hMPV B, UniProt Q6WB98 19-102); assay: BLI, 56C stress
T20 construct: T49I, L141C-A161C, S149T, G239A, T365I, T411C-Q434C, A459P
Experimental: as §2, §1

hMPV132 = molecular target: T21, hMPV132 (hMPV B, UniProt Q6WB98 19-102); assay: BLI, 56C stress
T21 construct: L141C-A161C, S149T, G239A, T411C-Q434C, A459P
Experimental: as §2, §1

hMPV140 [15] = molecular target: T8, hMPV140; assay: BLI, 56C stress
Experimental: as §2, §1

hMPV129 [16] = molecular target: T9, hMPV129; assay: BLI, 56C stress
Experimental: as §2, §1

hMPV121 [17] = molecular target: T10, hMPV121; assay: BLI, 56C stress
Experimental: as §2, §1

hMPV118 [18] = molecular target: T11, hMPV118; assay: BLI, 56C stress
Experimental: as §2, §1

B1: hMPV-2 mAb (antibody, V domains shown)
VH: QVQLQQSGAEVKKPGASVKVSCKASGYTFTSYGISWVRQAPGQGLEWMGWISGYNGNTNYAQTFQGTFTMTTDTSTSTAYMELRRLRSGDTAVYYCARDRYYASGSYNGMDVWGQGTTVTVSS
VL: QSALTQPPSASGAPGQRVTVSCSGSSSNVGSSSVYWYQQLPGTAPKLLIYRNNQRPSGVPDRFSGSKSGTSASLAISGLRSEDEADYYCAAWDDSLSGWVFGGGTKLTVLG
notes: human IgG1
- Response Shift (hMPV137 [1]): 0.238 nm
- Response Shift (hMPV124): 0.065 nm
- Response Shift (hMPV122 [2]): 0.665 nm
- Response Shift (hMPV127 [3]): 0.696 nm
- Response Shift (hMPV144 [4]): -0.015 nm
- Response Shift (hMPV125 [5]): 0.233 nm
- Response Shift (hMPV131): 0.679 nm
- Response Shift (hMPV140 [6]): 0.747 nm
- Response Shift (hMPV129 [7]): 0.661 nm
- Response Shift (hMPV121 [8]): 0.078 nm
- Response Shift (hMPV118 [9]): 0.028 nm
- Response Shift (hMPV142): 0.054 nm
- Response Shift (hMPV135): 0.724 nm
- Response Shift (hMPV137 [10]): 0.626 nm
- Response Shift (hMPV120): 0.564 nm
- Response Shift (hMPV B F WT Control): 0.122 nm
- Response Shift (hMPV133): 0.616 nm
- Response Shift (hMPV122 [11]): 0.686 nm
- Response Shift (hMPV123): 0.559 nm
- Response Shift (hMPV117): 0.64 nm
- Response Shift (hMPV127 [12]): 0.674 nm
- Response Shift (hMPV144 [13]): 0.67 nm
- Response Shift (hMPV125 [14]): 0.785 nm
- Response Shift (hMPV126): 0.73 nm
- Response Shift (hMPV136): 0.541 nm
- Response Shift (hMPV134): 0.665 nm
- Response Shift (hMPV132): 0.694 nm
- Response Shift (hMPV140 [15]): 0.66 nm
- Response Shift (hMPV129 [16]): 0.632 nm
- Response Shift (hMPV121 [17]): 0.794 nm
- Response Shift (hMPV118 [18]): 0.801 nm
